Several values for one entry are separate records, joined by “and”; a condition that tells them apart may be missing. Identical values can stand only once.
Tests used:
Experiment in all cases: cell-based or functional assay
[1] = target: Human rt-PA (Activase), obtained from Genentech Inc. (human) (UniProt P00750)
[2] = target: Urokinase (Abbokinase), manufactured by Abbott Laboratories (UniProt P00749)
[3] = target: Purified human plasmin, obtained from Enzyme Research Laboratories, Inc. (human) (UniProt P00747)
Sequence of Purified human plasmin, obtained from Enzyme Research Laboratories, Inc. (human) (P00747 97-810 limits assumed): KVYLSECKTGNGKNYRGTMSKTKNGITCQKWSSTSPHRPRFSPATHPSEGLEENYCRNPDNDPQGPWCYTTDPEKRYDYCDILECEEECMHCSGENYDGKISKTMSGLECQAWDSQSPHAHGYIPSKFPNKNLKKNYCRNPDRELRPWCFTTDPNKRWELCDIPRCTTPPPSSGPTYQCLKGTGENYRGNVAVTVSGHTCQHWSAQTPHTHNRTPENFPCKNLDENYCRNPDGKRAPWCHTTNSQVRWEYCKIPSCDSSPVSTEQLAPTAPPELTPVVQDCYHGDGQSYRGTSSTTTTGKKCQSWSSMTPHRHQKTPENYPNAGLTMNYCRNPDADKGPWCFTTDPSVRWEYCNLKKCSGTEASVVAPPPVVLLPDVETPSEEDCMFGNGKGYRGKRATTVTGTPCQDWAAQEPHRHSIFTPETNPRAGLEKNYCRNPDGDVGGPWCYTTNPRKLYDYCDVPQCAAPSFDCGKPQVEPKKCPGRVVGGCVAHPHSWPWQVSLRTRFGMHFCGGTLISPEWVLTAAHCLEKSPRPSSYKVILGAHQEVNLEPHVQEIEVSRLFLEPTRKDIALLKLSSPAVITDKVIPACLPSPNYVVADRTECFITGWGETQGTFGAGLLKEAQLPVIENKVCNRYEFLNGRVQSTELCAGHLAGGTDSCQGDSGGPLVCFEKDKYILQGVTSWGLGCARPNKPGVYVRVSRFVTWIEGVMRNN

Sequence of Human rt-PA (Activase), obtained from Genentech Inc. (human) (P00750 36-562 limits assumed): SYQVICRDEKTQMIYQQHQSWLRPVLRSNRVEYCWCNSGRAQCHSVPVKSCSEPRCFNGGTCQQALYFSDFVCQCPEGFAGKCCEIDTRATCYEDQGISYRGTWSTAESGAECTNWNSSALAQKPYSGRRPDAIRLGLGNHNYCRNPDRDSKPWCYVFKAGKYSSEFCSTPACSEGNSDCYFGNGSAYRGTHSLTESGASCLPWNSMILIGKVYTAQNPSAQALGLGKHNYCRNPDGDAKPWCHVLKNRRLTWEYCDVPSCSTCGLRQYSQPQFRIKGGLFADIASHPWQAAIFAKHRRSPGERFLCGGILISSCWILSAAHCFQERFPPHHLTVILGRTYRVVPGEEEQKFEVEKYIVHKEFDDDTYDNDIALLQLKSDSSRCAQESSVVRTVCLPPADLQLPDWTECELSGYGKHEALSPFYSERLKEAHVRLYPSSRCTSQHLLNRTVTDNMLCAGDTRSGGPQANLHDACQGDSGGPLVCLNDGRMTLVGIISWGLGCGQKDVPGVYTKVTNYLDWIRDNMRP

Substance	IC50 [1] [nM]	IC50 [2]	IC50 [3]
benzyloxycarbonyl-D-seryl-2-aminobutanoyl-argininal (peptide)	> 2500	< 100 nM	
benzenesulfonyl-D-seryl-azetidyl-argininal, trifluoroacetate salt (peptide)		< 100 nM	> 250 nM and < 2500 nM
benzyloxycarbonyl-D-seryl-2-norvalyl-argininal (peptide)	> 2500	> 100 nM and < 250 nM	
benzyloxycarbonyl-D-seryl-L-3,4-dehydroprolyl-argininal (peptide)	> 2500	< 100 nM	> 100 nM and < 250 nM
benzyloxycarbonyl-D-seryl-L-β-cyanoalanine-argininal (peptide)	> 2500	< 100 nM	> 250 nM and < 2500 nM
benzyloxycarbonyl-D-seryl-L-allylglycyl-argininal (peptide)	> 2500	> 100 nM and < 250 nM	> 250 nM and < 2500 nM
benzyloxycarbonyl-D-seryl-L-azetidine-2-carbonyl-argininal (peptide)	> 2500	< 100 nM	> 250 nM and < 2500 nM
benzyloxycarbonyl-D-seryl-L-propargylglycyl-argininal (peptide)	> 2500	< 100 nM	> 250 nM and < 2500 nM
benzyloxycarbonyl-D-seryl-pipecolyl-argininal (peptide)	> 2500	> 100 nM and < 250 nM	

Source: US6432922
